# Ends that are not written are not given here. * marks the point of attachment. Nvoc = Nvoc photocleavable protecting (caging) group on the Lys side chain, COc1cc(COC(=O)*)c([N+](=O)[O-])cc1OC
# Key:
# Assay type in all cases: cell-based
# hKV1.2 = target: T1, hKV1.2 (Homo sapiens, UniProt P16389); experiment: Photocontrol of KV1.2 current, automated patch-clamp; conditions: 100 nM; 365 nm, 45 mW/cm^2, 250 s
# T1 construct: expressed in transfected cells; host or cells: CHO (transient)
# Experimental: (§1) HEK293 cells stably expressing the hNaV1.1 (XM_011511604), hNaV1.2 (XM_017004655) or hNaV1.6 (XM_011538651) channels, CHO cells transiently expressing hKV1.2 (NG_027997.2) and CHO cells stably expressing hNaV1.7 (XM_011511618) or the hERG (NM_000238) channels were cultured in Dulbecco’s Modified Eagle’s Medium (DMEM) supplemented with 10% fetal bovine serum, 1 mM pyruvic acid, 4.5 g/L glucose, 4 mM glutamine, 800 µg/mL G418, 10 U/mL penicillin and 10 μg/mL streptomycin (Gibco, Grand Island, NY). All cell lines were incubated at 37 °C in a 5% CO2 atmosphere. For electrophysiological recordings, cells were detached with trypsin and floating single cells were diluted (~300,000 cells/mL) in medium contained (in mM): […], 4 KCl, 2 CaCl2, 1 MgCl2, 5 glucose, and 10 HEPES (pH 7.4, osmolarity 298 mOsm).
# (§2) Automated patch-clamp recordings were performed using the SyncroPatch 384PE from Nanion (München, Germany). […] Current inhibition percentages were measured at equilibrium after 14 min peptide application time. […]
# (§3) The pharmacology of HwTxIV-Nvoc, as well as the efficiency of the released product to block hNaV channels was studied using combined automated patch-clamp and UV illumination. After 2 min of control, HwTxIV-Nvoc was added to the external buffer and effects were recorded for 100 s prior to a 250 s-duration illumination for photocleavage induction of the caged compound. […]
# hNaV1.6 = target: T2, hNaV1.6 (Homo sapiens, UniProt Q9UQD0); experiment: Photoactivation by UV illumination combined with automated patch-clamp; conditions: 100 nM, illumination 4 min, 365 nm, 45 mW/cm2; n = 14
# T2 construct: expressed in transfected cells
# T2 sequence (Q9UQD0 whole entry): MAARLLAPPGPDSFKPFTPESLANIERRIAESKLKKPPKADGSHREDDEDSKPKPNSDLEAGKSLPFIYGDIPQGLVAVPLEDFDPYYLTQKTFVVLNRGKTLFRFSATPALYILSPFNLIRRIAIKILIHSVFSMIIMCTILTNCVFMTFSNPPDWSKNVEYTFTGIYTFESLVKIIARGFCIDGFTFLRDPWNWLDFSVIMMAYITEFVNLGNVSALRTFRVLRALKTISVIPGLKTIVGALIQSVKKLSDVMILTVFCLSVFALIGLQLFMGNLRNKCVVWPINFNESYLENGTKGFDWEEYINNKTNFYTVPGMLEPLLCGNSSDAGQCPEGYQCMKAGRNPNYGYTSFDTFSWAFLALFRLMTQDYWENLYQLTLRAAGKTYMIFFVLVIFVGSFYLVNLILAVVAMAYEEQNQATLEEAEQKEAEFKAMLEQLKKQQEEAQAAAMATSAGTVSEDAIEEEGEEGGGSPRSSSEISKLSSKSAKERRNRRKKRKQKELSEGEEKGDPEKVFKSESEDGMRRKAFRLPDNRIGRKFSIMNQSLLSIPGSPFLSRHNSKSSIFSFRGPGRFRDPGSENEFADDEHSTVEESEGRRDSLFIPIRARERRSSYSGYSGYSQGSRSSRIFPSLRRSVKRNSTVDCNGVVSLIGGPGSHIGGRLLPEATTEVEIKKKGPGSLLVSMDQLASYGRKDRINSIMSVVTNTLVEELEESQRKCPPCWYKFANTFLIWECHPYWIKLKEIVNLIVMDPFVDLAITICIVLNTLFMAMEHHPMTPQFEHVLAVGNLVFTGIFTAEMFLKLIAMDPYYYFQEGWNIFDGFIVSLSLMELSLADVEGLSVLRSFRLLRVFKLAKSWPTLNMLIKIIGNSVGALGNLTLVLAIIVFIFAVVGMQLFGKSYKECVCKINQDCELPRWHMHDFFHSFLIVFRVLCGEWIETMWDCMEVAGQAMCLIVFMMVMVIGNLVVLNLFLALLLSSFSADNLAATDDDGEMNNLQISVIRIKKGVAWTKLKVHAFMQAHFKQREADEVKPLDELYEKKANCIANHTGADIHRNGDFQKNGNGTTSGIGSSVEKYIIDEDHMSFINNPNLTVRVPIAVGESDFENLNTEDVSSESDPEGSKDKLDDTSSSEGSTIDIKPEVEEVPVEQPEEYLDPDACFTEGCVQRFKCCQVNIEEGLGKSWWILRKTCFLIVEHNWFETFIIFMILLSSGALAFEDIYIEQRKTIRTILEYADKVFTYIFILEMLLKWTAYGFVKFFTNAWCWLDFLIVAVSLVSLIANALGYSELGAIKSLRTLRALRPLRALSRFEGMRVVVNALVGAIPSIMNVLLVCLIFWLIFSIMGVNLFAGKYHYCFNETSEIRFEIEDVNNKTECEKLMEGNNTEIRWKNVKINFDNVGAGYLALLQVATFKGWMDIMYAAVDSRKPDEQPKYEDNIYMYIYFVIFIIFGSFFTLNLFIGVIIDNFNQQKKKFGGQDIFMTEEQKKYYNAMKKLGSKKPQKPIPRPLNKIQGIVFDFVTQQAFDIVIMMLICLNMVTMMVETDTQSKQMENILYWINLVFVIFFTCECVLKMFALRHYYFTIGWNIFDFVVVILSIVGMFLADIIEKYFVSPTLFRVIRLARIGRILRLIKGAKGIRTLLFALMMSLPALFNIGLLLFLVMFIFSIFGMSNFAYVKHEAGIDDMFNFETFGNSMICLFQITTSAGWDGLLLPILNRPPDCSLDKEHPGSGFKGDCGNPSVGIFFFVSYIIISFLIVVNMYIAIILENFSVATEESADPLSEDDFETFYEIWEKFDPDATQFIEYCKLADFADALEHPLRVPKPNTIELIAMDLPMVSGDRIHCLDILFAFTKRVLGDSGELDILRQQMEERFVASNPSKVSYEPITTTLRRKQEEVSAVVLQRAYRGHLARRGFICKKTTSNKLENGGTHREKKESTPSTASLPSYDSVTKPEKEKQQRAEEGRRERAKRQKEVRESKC
# Experimental: as §1, §2, §3
# hERG = target: T3, hERG (Homo sapiens, UniProt Q12809); experiment: Photocontrol of hERG current, automated patch-clamp; conditions: 100 nM; 365 nm, 45 mW/cm^2, 250 s
# T3 construct: expressed in transfected cells
# T3 sequence (Q12809 whole entry): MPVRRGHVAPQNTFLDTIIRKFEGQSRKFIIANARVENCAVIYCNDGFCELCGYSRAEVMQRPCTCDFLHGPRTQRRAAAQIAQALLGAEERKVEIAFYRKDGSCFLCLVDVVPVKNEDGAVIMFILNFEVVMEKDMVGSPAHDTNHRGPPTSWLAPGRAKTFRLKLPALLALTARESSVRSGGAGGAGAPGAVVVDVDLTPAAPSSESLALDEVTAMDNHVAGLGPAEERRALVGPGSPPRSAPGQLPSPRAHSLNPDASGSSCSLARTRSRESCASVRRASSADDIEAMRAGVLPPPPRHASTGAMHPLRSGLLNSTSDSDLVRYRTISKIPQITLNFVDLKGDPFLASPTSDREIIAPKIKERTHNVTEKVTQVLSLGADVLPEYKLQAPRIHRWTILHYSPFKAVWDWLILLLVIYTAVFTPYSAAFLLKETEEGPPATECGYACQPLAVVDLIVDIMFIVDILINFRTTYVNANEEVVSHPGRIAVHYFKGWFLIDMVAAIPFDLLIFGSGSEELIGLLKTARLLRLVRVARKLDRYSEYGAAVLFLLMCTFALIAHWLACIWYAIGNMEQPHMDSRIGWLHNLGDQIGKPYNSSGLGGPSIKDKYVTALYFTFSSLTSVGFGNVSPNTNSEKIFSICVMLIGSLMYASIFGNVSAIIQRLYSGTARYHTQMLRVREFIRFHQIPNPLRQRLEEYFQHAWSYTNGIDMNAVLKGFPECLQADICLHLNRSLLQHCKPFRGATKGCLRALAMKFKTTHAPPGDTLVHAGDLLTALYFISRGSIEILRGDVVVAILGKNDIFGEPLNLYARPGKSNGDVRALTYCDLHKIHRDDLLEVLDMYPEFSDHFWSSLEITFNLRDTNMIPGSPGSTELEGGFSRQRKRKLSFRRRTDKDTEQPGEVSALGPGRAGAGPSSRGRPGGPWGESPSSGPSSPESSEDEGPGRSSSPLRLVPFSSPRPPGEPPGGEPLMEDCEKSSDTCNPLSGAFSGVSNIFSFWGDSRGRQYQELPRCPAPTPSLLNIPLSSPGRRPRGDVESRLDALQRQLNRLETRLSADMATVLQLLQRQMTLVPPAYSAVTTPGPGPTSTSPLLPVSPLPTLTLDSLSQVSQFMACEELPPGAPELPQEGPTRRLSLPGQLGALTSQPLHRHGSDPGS
# Experimental: as §1, §2, §3
# T1 sequence (P16389 whole entry): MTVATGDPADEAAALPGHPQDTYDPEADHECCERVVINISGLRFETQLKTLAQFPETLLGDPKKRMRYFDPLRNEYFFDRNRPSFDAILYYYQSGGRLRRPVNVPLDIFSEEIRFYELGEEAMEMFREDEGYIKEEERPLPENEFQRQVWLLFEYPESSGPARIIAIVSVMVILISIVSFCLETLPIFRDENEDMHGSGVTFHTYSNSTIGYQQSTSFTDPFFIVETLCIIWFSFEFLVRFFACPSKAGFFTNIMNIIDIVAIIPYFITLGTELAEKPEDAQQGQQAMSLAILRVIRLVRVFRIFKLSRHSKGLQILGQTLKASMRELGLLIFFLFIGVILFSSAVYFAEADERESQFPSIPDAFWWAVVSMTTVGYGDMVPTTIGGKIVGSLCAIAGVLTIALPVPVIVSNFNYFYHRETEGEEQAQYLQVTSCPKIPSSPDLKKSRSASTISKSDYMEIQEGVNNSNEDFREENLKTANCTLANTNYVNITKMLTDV
Substance,UV-dependent effect on KV1.2 current (hKV1.2),effect of Nvoc photolysis by-product on hNaV1.6 (hNaV1.6),UV-dependent effect on hERG current (hERG)
charybdotoxin-Nvoc,block,–,–
"BeKm1-Nvoc: BeKm1 (hERG blocker) caged with a Nvoc protecting group on K^18 (RPTDIKCSESYQCFPVCK(Nvoc)SRFGKTNGRCVNGFCDCF; ends and bridges not checked; UniProt Q9BKB7 22-57, looked up)",–,inert,block
